Source: paper PMC4100735

Biological target: TNF receptor-associated factor 2 (TRAF2) (human (endogenous in HEK-293T)) (UniProt Q12933)
Test: co-IP; lysates of HEK-293T cells transfected with Tyr52 or Cys52 FBXO7-EGFP and treated with MG-132 (5 uM, 24 h); 100 ug protein immunoprecipitated with mouse anti-TRAF2 antibody on protein G beads in IP lysis buffer (25 mM Tris-HCl pH 7.4, 150 mM NaCl, 1% NP-40, 1 mM EDTA, 5% glycerol); blot with anti-EGFP; normal IgG as negative control

UniProt Q12933, sequence (Q12933 whole entry): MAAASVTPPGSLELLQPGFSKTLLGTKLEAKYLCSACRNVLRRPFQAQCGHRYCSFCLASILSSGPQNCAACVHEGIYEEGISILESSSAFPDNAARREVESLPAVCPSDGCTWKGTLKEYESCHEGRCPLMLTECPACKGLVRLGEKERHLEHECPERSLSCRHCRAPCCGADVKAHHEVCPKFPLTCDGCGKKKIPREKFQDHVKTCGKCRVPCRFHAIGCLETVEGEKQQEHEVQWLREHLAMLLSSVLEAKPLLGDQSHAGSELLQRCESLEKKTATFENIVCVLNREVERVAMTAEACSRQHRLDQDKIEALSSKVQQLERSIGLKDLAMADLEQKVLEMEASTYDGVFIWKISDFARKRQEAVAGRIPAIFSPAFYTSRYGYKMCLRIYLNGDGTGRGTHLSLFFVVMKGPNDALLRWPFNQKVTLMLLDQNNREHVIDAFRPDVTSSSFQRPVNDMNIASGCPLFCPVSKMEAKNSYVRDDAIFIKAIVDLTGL

- FBXO7-TRAF2 interaction in co-IP, percent of Tyr52 FBXO7-EGFP: 367%
Substance: Cys52 FBXO7-EGFP (F-box only protein 7 Y52C variant, isoform 1, EGFP-tagged) (from UniProt Q9Y3I1-1 1-522) (natural protein)
